From patent US7026443 come the findings set out here.

The target in one assay is HLA-A*1101 (human).
Conditions: not given
As to GLSFTDLVR (modifications not checked) [HPV45 E1 209 … (SEQ ID NO: 43622)], the relative binding ratio (IC50 of standard peptide / IC50 of test peptide) is 0.0025.
As for FMSFLTALK (modifications not checked) [HPV16 E1 453 …], the relative binding ratio (IC50 of standard peptide / IC50 of test peptide) is 0.21.
On to DIILECVYCK (modifications not checked) [… (HPV16 E6, position 32, 10 amino acids)], for which the binding affinity ratio (IC50 of standard peptide / IC50 of test peptide) (ratio to standard peptide) stood at 0.021.
For the molecule CATMCRHYK (modifications not checked) [HPV16 E1 405 …], the relative binding ratio (IC50 of standard peptide / IC50 of test peptide) is 0.0098.
For SMSQWIKYR (modifications not checked) [… (HPV16 E1, position 421, 9 amino acids)], the binding affinity ratio (IC50 of the standard peptide / IC50 of the test peptide) was determined as 0.028.
Turning to NSNASAFLK (modifications not checked) [HPV16 E1 386 …], the binding affinity ratio (IC50 of standard peptide / IC50 of test peptide) (ratio to standard peptide) was determined as 0.011.
In the case of CTELQTTIH (modifications not checked) [… (HPV16 E6, position 23, 9 amino acids)], the binding affinity ratio (IC50 of standard peptide / IC50 of test peptide) (ratio to standard peptide) was determined as 0.0001.
With DCATMCRHY (modifications not checked) [HPV16 E1 404 …], the relative binding ratio (IC50 of standard peptide / IC50 of test peptide) was found to be 0.0001.
Regarding TAAALYWYK (modifications not checked) [… (HPV16 E1, position 315, 9 amino acids)], the binding affinity ratio (IC50 of the standard peptide / IC50 of the test peptide) was 20.
ALFTAQEAK (modifications not checked) [HPV16 E1 69 …]: the relative binding ratio (IC50 of standard peptide / IC50 of test peptide) came out at 0.4.
Take EVYDFAFR (modifications not checked) [EVYDFAFR (HPV16 E6, position 48, 8 amino acids)]: the binding affinity ratio (IC50 of standard peptide / IC50 of test peptide) (ratio to standard peptide) worked out at 0.0025.
With CVYCKQQLLR (modifications not checked) [… (HPV16 E6, position 37, 10 amino acids)], the binding affinity ratio (IC50 of standard peptide / IC50 of test peptide) (ratio to standard peptide) was 0.0005.
Turning to QMSMSQWIK (modifications not checked) [… (HPV16 E1, position 419, 9 amino acids)], the binding affinity ratio (IC50 of the standard peptide / IC50 of the test peptide) amounted to 0.026.
With NSNAAAFLK (modifications not checked) [HPV33 E1 379 peptide … (A11 motif peptide, 9 amino acids)], the relative binding ratio (IC50 of standard peptide / IC50 of test peptide) came out at 0.37.
As for ATMCRHYKR (modifications not checked) [HPV16 E1 406 …], the relative binding ratio (IC50 of standard peptide / IC50 of test peptide) amounted to 1.5.
For LVRNFKSDK (modifications not checked) [HPV45 E1 215 peptide … (SEQ ID NO: 43696)], the relative binding ratio (IC50 of standard peptide / IC50 of test peptide) was 0.0002.
MLIQPPKLR (modifications not checked) [HPV31 E1 285 … (SEQ ID NO: 41814)]: the relative binding ratio (IC50 of standard peptide / IC50 of test peptide) was determined as 0.0014.

Still in this assay, the particulars now being: scale: ratio.
Take SVAALYWYR (modifications not checked) [HPV45 E1 308 peptide … (SEQ ID NO: 43764)]: the binding affinity ratio relative to standard peptide (A*1101) came to 8.8.
With NSNAAAFLK (modifications not checked) [HPV45 E1 379 peptide … (SEQ ID NO: 43719)], the binding affinity ratio relative to standard peptide (A*1101) was determined as 0.37.

The target in a further assay is HLA-A*0301 (human).
Conditions: not given
Turning to LIRCINCQK (modifications not checked) [… (HPV16 E6, position 107)], the relative binding ratio (IC50 of standard peptide / IC50 of test peptide) (ratio to standard peptide) was 0.0025.
For HDIILECVY (modifications not checked) [… (HPV16 E6, position 31)], the relative binding ratio (IC50 of standard peptide / IC50 of test peptide) (ratio to standard peptide) was found to be 0.0002.
Still for that read-out and setting: with KISEYRHYCY (modifications not checked) [… (HPV16 E6, position 79)] the figure was 0.0043.
With TGLYNLLIR (modifications not checked) [HPV18 E6 peptide … (position 96, 9 amino acids)], the relative binding ratio (IC50 of standard peptide / IC50 of test peptide) amounted to 0.0005.
As to FLKSNSQAK (modifications not checked) [HPV33 E1 385 peptide … (SEQ ID NO: 35888)], the relative binding ratio (IC50 of standard peptide / IC50 of test peptide) was determined as 0.0013.
For QMNMSQWIR (modifications not checked) [HPV18 E1 426-434 peptide …], the binding affinity ratio relative to standard peptide (IC50 standard / IC50 test) was determined as 0.0011.
As to NSNAAAFLK (modifications not checked) [HPV45 E1 peptide … (position 379, 9 amino acids)], the relative binding ratio (IC50 of standard peptide / IC50 of test peptide) was 0.0057.
Consider SMSQWIKYR (modifications not checked) [HPV16 E1 421 …], for which the binding affinity ratio (IC50 of standard peptide / IC50 of test peptide) is 0.69.
LVRNFKSDK (modifications not checked) [… (HPV18 E1, position 229, 9 amino acids)]: the binding affinity ratio (IC50 of standard peptide / IC50 of test peptide) stood at 0.0005.
On to IILECVYCK (modifications not checked) [… (HPV16 E6, position 33)], for which the relative binding ratio (IC50 of standard peptide / IC50 of test peptide) (ratio to standard peptide) was determined as 0.0016.
As for VFEFAFKDLF (modifications not checked) [HPV18 E6 peptide … (position 44, 10 amino acids)], the relative binding ratio (IC50 of standard peptide / IC50 of test peptide) stood at 0.0001.
As for MLIQPPKLR (modifications not checked) [… (HPV18 E1, position 312, 9 amino acids)], the binding affinity ratio (IC50 of standard peptide / IC50 of test peptide) worked out at 0.0005.
In the case of VVYRDSIPH (modifications not checked) [HPV18 E6 peptide … (position 54, 9 amino acids)], the relative binding ratio (IC50 of standard peptide / IC50 of test peptide) is 0.12.
As for RFHNIAGHYR (modifications not checked) [HPV18 E6 peptide … (position 126, 10 amino acids)], the relative binding ratio (IC50 of standard peptide / IC50 of test peptide) came to 0.0023.
On to KFYSKISEYR (modifications not checked), for which the relative binding ratio (IC50 of standard peptide / IC50 of test peptide) (ratio to standard peptide) was found to be 0.0067.
Take DCATMCRHYK (modifications not checked) [HPV16 E1 peptide … (position 404, 10 amino acids)]: the relative binding ratio (IC50 of standard peptide / IC50 of test peptide) (ratio to standard peptide) is 0.0044.
On to ALLRYKCGK (modifications not checked) [HPV45 E1 270 … (SEQ ID NO: 37205)], for which the relative binding ratio (IC50 of standard peptide / IC50 of test peptide) came to 0.09.
For LLIRCINCQK (modifications not checked) [… (HPV16 E6, position 106)], the relative binding ratio (IC50 of standard peptide / IC50 of test peptide) (ratio to standard peptide) was determined as 0.021.
In the case of RFHNIAGHY (modifications not checked) [HPV18 E6 peptide … (position 126, 9 amino acids)], the relative binding ratio (IC50 of standard peptide / IC50 of test peptide) is 0.0005.
CATMCKHYR (modifications not checked) [HPV18 E1 peptide … (position 412, 9 amino acids)]: the binding affinity ratio (IC50 of standard peptide / IC50 of test peptide) stood at 0.0012.
In the case of CVYCKQQLLR (modifications not checked) [HPV16 E6 position 37 peptide …], the binding affinity ratio (IC50 of the standard peptide / IC50 of the test peptide) is 0.0001.
On to SVAALYWYR (modifications not checked) [HPV45 E1 308 peptide … (SEQ ID NO: 37559)], for which the relative binding ratio (IC50 of standard peptide / IC50 of test peptide) came to 2.9.
Regarding TAAALYWYK (modifications not checked) [HPV16 E1 315 …], the binding affinity ratio (IC50 of standard peptide / IC50 of test peptide) amounted to 0.78.
Regarding GLSFTDLVR (modifications not checked) [HPV45 E1 peptide … (position 209, 9 amino acids)], the relative binding ratio (IC50 of standard peptide / IC50 of test peptide) stood at 0.0009.
For SVAALYWYR (modifications not checked) [HPV18 E1 322-330 peptide …], the binding affinity ratio relative to standard peptide (IC50 standard / IC50 test) amounted to 2.9.
As to DIILECVYCK (modifications not checked) [HPV16 E6 position 32 peptide …], the binding affinity ratio (IC50 of the standard peptide / IC50 of the test peptide) was 0.0065.
Regarding NSNAAAFLK (modifications not checked) [… (HPV18 E1, position 393, 9 amino acids)], the binding affinity ratio (IC50 of standard peptide / IC50 of test peptide) amounted to 0.0057.
As for MLIQPPKLR (modifications not checked) [HPV31 E1 peptide … (position 285, 9 amino acids)], the relative binding ratio (IC50 of standard peptide / IC50 of test peptide) (ratio to standard peptide) was 0.0005.
TTLEQQYNK (modifications not checked) [… (HPV16 E6, position 93)]: the relative binding ratio (IC50 of standard peptide / IC50 of test peptide) (ratio to standard peptide) is 0.01.
For the molecule GLSFTDLVR (modifications not checked) [HPV18 E1 223 …], the binding affinity ratio (IC50 of standard peptide / IC50 of test peptide) worked out at 0.0009.
As to FLKSNSQAK (modifications not checked) [HPV31 E1 372 … (A03 motif peptide)], the relative binding ratio (IC50 of standard peptide / IC50 of test peptide) (ratio to standard peptide) came out at 0.0013.
On to IAQLKDLLK (modifications not checked) [HPV18 E1 198 …], for which the binding affinity ratio (IC50 of standard peptide / IC50 of test peptide) came to 0.0003.
As to LVRNFKSDK (modifications not checked) [HPV45 E1 215-223 peptide … (SEQ ID NO: 37448)], the relative binding ratio (IC50 of the standard peptide / IC50 of the test peptide) was 0.0005.
GTTLEQQYNK (modifications not checked) [HPV16 E6 position 92 peptide …]: the binding affinity ratio (IC50 of the standard peptide / IC50 of the test peptide) was 0.0002.
With FITFLGALK (modifications not checked) [HPV18 E1 460 …], the binding affinity ratio (IC50 of standard peptide / IC50 of test peptide) came out at 0.032.
ALLRYKCGK (modifications not checked) [HPV18 E1 peptide … (position 284, 9 amino acids)]: the binding affinity ratio (IC50 of standard peptide / IC50 of test peptide) came to 0.09.
NMSQWIRFR (modifications not checked) [… (HPV18 E1, position 428, 9 amino acids)]: the binding affinity ratio (IC50 of standard peptide / IC50 of test peptide) turned out to be 0.054.
For the molecule CTELQTTIH (modifications not checked) [HPV16 E6 position 23 peptide …], the binding affinity ratio (IC50 of the standard peptide / IC50 of the test peptide) stood at 0.0002.
Consider NSNAAAFLK (modifications not checked) [HPV33 E1 379 peptide … (SEQ ID NO: 36047)], for which the relative binding ratio (IC50 of standard peptide / IC50 of test peptide) was found to be 0.0057.

Still in this assay, the particulars now being: remark: other sources report otherwise.
With KFYSKISEY (modifications not checked), the relative binding ratio (IC50 of standard peptide / IC50 of test peptide) (ratio to standard peptide) worked out at 0.0015.
